According to patent US20200199241A1 (Chugai, published 2020):

T1: human FcγRIIa(H) (human, UniProt P12318 36-217)
T1 construct: also called FcgRIIaH; hFcgRIIa(H)
T1 sequence: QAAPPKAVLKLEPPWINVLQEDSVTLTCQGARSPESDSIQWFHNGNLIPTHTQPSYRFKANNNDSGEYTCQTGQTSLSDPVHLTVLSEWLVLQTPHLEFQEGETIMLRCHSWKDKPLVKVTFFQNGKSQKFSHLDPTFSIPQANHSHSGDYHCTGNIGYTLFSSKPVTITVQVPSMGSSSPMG

T2: human FcγRIIa(R) (human, UniProt P12318 36-217)
T2 construct: also called FcgRIIaR; hFcgRIIa(R)
T2 chain: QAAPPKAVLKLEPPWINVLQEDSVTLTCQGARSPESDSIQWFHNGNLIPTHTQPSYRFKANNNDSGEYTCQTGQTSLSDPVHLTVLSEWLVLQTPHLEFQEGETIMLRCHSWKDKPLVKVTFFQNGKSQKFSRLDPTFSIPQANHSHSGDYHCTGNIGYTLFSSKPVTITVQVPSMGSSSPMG

T3: human FcγRIIb (human, UniProt P31994 43-217, limits assumed)
T3 construct: also called FcgRIIb; hFcgRIIb
T3 sequence: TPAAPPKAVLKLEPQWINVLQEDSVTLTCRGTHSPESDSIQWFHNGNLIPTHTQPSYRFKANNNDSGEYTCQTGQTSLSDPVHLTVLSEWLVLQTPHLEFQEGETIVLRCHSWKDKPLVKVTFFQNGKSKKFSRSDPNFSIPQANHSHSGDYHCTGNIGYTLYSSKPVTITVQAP

B1: GpH7-B3 Q295W/GpL16-k0 (antibody, human IgG1)
heavy: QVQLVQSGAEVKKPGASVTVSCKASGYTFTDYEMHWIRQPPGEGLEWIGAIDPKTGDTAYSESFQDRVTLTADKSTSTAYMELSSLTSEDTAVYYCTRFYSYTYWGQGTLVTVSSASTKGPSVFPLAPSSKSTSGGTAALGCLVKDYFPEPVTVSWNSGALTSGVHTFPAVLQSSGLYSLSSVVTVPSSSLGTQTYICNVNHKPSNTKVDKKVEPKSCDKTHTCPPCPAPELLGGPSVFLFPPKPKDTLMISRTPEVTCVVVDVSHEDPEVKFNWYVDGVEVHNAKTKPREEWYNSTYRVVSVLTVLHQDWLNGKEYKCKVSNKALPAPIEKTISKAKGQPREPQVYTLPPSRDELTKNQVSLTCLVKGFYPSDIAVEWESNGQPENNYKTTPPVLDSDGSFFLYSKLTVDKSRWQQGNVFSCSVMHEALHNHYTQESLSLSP
light: DIVMTQSPLSLPVTPGEPASISCQASESLVHSNRNTYLHWYLQKPGQSPQLLIYKVSNRFSGVPDRFSGSGSGTDFTLKISRVEAEDVGVYYCSQNTHVPPTFGQGTKVEIE
notes: B3 variant; copies: 2 + 2
B2: GpH7-B3 P331K/GpL16-k0 (antibody, human IgG1)
heavy: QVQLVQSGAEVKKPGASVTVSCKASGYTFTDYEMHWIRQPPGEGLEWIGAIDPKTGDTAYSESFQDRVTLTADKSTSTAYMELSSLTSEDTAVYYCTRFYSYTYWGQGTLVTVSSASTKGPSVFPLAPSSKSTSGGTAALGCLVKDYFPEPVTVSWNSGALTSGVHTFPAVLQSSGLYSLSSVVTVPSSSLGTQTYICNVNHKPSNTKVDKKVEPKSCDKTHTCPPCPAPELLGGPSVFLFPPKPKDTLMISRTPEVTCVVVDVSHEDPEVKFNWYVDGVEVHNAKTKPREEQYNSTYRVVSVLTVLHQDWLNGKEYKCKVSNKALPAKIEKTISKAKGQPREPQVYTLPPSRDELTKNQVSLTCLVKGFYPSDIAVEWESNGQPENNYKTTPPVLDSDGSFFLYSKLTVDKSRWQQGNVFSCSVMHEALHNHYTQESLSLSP
light: DIVMTQSPLSLPVTPGEPASISCQASESLVHSNRNTYLHWYLQKPGQSPQLLIYKVSNRFSGVPDRFSGSGSGTDFTLKISRVEAEDVGVYYCSQNTHVPPTFGQGTKVEIE
notes: B3 variant; copies: 2 + 2
B3: GpH7-B3 P329Y/GpL16-k0 (antibody, human IgG1)
heavy: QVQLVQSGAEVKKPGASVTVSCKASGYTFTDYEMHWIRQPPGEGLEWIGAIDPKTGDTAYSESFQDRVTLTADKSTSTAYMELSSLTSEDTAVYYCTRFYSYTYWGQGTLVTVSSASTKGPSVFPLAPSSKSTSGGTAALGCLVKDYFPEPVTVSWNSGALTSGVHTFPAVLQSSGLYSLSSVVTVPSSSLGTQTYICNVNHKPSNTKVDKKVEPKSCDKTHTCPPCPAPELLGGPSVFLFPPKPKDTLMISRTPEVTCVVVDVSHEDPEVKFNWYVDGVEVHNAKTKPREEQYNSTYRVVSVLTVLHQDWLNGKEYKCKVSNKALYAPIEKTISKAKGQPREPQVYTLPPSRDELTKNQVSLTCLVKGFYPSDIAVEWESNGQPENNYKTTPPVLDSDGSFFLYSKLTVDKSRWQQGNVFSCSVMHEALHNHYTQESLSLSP
light: DIVMTQSPLSLPVTPGEPASISCQASESLVHSNRNTYLHWYLQKPGQSPQLLIYKVSNRFSGVPDRFSGSGSGTDFTLKISRVEAEDVGVYYCSQNTHVPPTFGQGTKVEIE
notes: B3 variant; copies: 2 + 2
B4: GpH7-B3 Q295R/GpL16-k0 (antibody, human IgG1)
heavy: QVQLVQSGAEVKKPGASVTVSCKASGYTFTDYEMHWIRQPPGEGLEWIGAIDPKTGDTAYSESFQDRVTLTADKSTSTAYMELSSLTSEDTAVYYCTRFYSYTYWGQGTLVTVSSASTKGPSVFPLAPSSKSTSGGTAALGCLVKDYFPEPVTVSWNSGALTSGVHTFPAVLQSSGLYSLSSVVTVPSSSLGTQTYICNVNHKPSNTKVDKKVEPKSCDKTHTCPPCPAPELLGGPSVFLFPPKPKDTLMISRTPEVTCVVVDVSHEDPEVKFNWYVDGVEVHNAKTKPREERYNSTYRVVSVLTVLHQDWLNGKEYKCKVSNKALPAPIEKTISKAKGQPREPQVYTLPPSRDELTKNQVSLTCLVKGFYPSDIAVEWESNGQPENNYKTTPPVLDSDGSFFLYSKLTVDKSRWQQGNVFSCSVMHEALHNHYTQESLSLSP
light: DIVMTQSPLSLPVTPGEPASISCQASESLVHSNRNTYLHWYLQKPGQSPQLLIYKVSNRFSGVPDRFSGSGSGTDFTLKISRVEAEDVGVYYCSQNTHVPPTFGQGTKVEIE
notes: B3 variant; copies: 2 + 2
B5: GpH7-B3 S298R/GpL16-k0 (antibody, human IgG1)
heavy: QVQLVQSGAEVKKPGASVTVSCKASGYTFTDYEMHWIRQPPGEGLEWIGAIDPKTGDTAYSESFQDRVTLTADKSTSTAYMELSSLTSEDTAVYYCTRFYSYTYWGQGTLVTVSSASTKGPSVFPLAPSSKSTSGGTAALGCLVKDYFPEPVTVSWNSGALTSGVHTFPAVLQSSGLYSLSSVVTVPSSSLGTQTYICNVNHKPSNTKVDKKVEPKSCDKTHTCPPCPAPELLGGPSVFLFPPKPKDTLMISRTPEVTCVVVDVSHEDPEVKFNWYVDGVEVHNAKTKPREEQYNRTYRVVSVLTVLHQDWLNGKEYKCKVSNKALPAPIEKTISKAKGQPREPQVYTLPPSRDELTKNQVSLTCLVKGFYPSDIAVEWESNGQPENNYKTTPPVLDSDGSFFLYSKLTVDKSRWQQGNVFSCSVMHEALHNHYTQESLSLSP
light: DIVMTQSPLSLPVTPGEPASISCQASESLVHSNRNTYLHWYLQKPGQSPQLLIYKVSNRFSGVPDRFSGSGSGTDFTLKISRVEAEDVGVYYCSQNTHVPPTFGQGTKVEIE
notes: B3 variant; copies: 2 + 2
B6: GpH7-B3 P329T/GpL16-k0 (antibody, human IgG1)
heavy: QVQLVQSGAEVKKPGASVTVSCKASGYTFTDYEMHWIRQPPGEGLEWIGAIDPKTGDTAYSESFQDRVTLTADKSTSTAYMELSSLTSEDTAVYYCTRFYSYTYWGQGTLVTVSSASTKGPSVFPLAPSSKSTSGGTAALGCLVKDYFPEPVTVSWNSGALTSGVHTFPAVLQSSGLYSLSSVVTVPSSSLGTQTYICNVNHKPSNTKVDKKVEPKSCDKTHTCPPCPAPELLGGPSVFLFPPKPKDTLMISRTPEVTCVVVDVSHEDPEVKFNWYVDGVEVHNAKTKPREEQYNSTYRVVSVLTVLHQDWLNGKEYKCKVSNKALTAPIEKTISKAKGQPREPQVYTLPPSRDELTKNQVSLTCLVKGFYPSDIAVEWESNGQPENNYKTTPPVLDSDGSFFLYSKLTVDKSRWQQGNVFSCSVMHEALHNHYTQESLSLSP
light: DIVMTQSPLSLPVTPGEPASISCQASESLVHSNRNTYLHWYLQKPGQSPQLLIYKVSNRFSGVPDRFSGSGSGTDFTLKISRVEAEDVGVYYCSQNTHVPPTFGQGTKVEIE
notes: B3 variant; copies: 2 + 2
B7: GpH7-B3 Q295Y/GpL16-k0 (antibody, human IgG1)
heavy: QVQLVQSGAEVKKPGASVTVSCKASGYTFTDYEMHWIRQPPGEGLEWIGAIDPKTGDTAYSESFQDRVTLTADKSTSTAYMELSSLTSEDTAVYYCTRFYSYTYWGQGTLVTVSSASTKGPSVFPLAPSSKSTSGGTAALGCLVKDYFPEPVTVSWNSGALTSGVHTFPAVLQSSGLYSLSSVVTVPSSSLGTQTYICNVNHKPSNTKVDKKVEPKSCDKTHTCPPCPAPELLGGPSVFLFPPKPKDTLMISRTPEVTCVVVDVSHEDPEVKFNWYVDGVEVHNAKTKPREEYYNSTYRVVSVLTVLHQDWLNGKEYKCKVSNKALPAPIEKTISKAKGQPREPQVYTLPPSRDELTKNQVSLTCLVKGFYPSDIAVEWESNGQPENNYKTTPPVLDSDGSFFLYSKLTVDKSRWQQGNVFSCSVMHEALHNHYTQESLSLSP
light: DIVMTQSPLSLPVTPGEPASISCQASESLVHSNRNTYLHWYLQKPGQSPQLLIYKVSNRFSGVPDRFSGSGSGTDFTLKISRVEAEDVGVYYCSQNTHVPPTFGQGTKVEIE
notes: B3 variant; copies: 2 + 2
B8: GpH7-B3 Q295G/GpL16-k0 (antibody, human IgG1)
heavy: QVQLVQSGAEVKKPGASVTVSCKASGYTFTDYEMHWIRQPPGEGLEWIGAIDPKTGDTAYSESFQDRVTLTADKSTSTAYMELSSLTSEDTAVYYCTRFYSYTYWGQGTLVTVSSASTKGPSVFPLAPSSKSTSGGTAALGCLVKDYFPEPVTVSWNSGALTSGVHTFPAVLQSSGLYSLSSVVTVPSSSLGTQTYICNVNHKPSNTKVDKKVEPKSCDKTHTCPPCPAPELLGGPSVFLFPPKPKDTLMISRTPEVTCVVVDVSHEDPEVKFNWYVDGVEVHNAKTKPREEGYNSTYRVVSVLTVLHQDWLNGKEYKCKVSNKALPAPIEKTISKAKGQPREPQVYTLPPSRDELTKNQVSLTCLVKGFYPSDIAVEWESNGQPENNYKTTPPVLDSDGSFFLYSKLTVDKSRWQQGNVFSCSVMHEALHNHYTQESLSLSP
light: DIVMTQSPLSLPVTPGEPASISCQASESLVHSNRNTYLHWYLQKPGQSPQLLIYKVSNRFSGVPDRFSGSGSGTDFTLKISRVEAEDVGVYYCSQNTHVPPTFGQGTKVEIE
notes: B3 variant; copies: 2 + 2
B9: GpH7-B3 S298Y/GpL16-k0 (antibody, human IgG1)
heavy: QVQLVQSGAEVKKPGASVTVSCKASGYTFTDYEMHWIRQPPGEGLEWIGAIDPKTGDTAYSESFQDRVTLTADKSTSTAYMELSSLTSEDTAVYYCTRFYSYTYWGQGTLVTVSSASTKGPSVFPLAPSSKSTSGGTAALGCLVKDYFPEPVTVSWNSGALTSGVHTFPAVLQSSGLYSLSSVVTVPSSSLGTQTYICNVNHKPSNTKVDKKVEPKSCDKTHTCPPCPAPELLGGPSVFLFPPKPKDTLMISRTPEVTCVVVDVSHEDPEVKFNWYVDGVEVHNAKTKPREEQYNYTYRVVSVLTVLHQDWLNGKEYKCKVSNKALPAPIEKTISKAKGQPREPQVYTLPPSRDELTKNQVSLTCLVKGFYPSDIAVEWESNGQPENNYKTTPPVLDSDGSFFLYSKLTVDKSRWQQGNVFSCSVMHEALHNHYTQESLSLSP
light: DIVMTQSPLSLPVTPGEPASISCQASESLVHSNRNTYLHWYLQKPGQSPQLLIYKVSNRFSGVPDRFSGSGSGTDFTLKISRVEAEDVGVYYCSQNTHVPPTFGQGTKVEIE
notes: B3 variant; copies: 2 + 2
B10: GpH7-B3 Q295F/GpL16-k0 (antibody, human IgG1)
heavy: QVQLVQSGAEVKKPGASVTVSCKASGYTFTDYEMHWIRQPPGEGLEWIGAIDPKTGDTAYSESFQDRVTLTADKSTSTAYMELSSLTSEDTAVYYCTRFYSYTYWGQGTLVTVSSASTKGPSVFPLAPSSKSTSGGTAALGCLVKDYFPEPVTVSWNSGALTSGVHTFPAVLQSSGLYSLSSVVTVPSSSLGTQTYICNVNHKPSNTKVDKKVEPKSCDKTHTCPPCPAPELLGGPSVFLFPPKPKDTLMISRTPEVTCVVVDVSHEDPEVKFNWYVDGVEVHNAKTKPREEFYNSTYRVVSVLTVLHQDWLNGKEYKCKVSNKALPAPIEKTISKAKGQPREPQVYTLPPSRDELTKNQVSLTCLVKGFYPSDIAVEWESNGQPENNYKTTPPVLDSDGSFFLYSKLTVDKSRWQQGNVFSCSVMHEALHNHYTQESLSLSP
light: DIVMTQSPLSLPVTPGEPASISCQASESLVHSNRNTYLHWYLQKPGQSPQLLIYKVSNRFSGVPDRFSGSGSGTDFTLKISRVEAEDVGVYYCSQNTHVPPTFGQGTKVEIE
notes: B3 variant; copies: 2 + 2
B11: GpH7-B3 S298K/GpL16-k0 (antibody, human IgG1)
heavy: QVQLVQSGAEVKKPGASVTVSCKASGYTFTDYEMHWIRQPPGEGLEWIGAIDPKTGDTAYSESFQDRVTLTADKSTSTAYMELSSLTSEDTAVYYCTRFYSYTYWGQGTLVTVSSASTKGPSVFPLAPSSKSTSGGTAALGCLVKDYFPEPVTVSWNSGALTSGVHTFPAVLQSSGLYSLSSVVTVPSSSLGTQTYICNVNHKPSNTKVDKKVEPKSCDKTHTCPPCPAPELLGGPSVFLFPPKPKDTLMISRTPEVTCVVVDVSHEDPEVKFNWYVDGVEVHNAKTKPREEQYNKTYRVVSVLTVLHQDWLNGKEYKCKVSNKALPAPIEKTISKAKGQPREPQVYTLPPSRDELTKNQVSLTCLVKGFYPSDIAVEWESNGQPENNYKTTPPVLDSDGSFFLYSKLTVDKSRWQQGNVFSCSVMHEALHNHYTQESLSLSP
light: DIVMTQSPLSLPVTPGEPASISCQASESLVHSNRNTYLHWYLQKPGQSPQLLIYKVSNRFSGVPDRFSGSGSGTDFTLKISRVEAEDVGVYYCSQNTHVPPTFGQGTKVEIE
notes: B3 variant; copies: 2 + 2
B12: GpH7-B3 Q295H/GpL16-k0 (antibody, human IgG1)
heavy: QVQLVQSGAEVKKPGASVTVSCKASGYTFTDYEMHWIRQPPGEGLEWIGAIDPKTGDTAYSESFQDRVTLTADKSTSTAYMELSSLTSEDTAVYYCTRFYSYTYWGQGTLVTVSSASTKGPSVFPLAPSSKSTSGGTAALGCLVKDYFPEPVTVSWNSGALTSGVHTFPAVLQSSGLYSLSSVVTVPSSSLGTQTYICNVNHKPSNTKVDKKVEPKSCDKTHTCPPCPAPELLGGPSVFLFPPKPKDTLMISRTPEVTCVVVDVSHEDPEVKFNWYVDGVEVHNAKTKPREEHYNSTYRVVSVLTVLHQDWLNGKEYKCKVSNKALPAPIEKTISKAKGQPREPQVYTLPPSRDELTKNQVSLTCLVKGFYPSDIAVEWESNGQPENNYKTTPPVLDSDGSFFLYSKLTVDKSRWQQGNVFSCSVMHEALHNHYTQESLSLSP
light: DIVMTQSPLSLPVTPGEPASISCQASESLVHSNRNTYLHWYLQKPGQSPQLLIYKVSNRFSGVPDRFSGSGSGTDFTLKISRVEAEDVGVYYCSQNTHVPPTFGQGTKVEIE
notes: B3 variant; copies: 2 + 2

Columns and labels:
Assay in all cases: SPR, captured antibody;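 note: antibody captured on a sensor chip, Fcγ receptor flowed over at 25 °C, receptor binding normalized to the captured antibody amount and expressed relative to the reference antibody ×100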
[1] = target: T4, human FcγRIa (human, UniProt P12314 16-292, limits assumed)
T4 construct: also called FcgRIa; hFcgRIa

[2] = target: T1, human FcγRIIa(H)
[3] = target: T2, human FcγRIIa(R)
[4] = target: T3, human FcγRIIb

T4 sequence (P12314 16-292 limits assumed): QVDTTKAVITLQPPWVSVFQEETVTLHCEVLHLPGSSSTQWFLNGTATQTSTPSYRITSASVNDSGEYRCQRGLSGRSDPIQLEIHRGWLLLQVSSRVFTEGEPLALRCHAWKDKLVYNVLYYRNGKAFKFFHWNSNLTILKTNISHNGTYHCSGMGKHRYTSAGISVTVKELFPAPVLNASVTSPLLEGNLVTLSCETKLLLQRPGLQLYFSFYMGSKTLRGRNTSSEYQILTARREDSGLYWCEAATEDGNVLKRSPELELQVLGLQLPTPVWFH

Binder | relative binding activity [1] | relative binding activity [2] | relative binding activity [3] | relative binding activity [4]
B1 | 81 % of GpH7-B3/GpL16-k0 | 38 % of GpH7-B3/GpL16-k0 | 26 % of GpH7-B3/GpL16-k0 | 16 % of GpH7-B3/GpL16-k0
B2 | 98 % of GpH7-B3/GpL16-k0 | 58 % of GpH7-B3/GpL16-k0 | 72 % of GpH7-B3/GpL16-k0 | 63 % of GpH7-B3/GpL16-k0
B3 | 76 % of GpH7-B3/GpL16-k0 | 0 % of GpH7-B3/GpL16-k0 | -1 % of GpH7-B3/GpL16-k0 | -3 % of GpH7-B3/GpL16-k0
B4 | 100 % of GpH7-B3/GpL16-k0 | 94 % of GpH7-B3/GpL16-k0 | 61 % of GpH7-B3/GpL16-k0 | 46 % of GpH7-B3/GpL16-k0
B5 | 92 % of GpH7-B3/GpL16-k0 | 36 % of GpH7-B3/GpL16-k0 | 62 % of GpH7-B3/GpL16-k0 | 22 % of GpH7-B3/GpL16-k0
B6 | 43 % of GpH7-B3/GpL16-k0 | 0 % of GpH7-B3/GpL16-k0 | -2 % of GpH7-B3/GpL16-k0 | -4 % of GpH7-B3/GpL16-k0
B7 | 95 % of GpH7-B3/GpL16-k0 | 70 % of GpH7-B3/GpL16-k0 | 38 % of GpH7-B3/GpL16-k0 | 24 % of GpH7-B3/GpL16-k0
B8 | 89 % of GpH7-B3/GpL16-k0 | 41 % of GpH7-B3/GpL16-k0 | 36 % of GpH7-B3/GpL16-k0 | 28 % of GpH7-B3/GpL16-k0
B9 | 100 % of GpH7-B3/GpL16-k0 | 35 % of GpH7-B3/GpL16-k0 | 33 % of GpH7-B3/GpL16-k0 | 23 % of GpH7-B3/GpL16-k0
B10 | 99 % of GpH7-B3/GpL16-k0 | 74 % of GpH7-B3/GpL16-k0 | 46 % of GpH7-B3/GpL16-k0 | 30 % of GpH7-B3/GpL16-k0
B11 | 88 % of GpH7-B3/GpL16-k0 | 38 % of GpH7-B3/GpL16-k0 | 79 % of GpH7-B3/GpL16-k0 | 34 % of GpH7-B3/GpL16-k0
B12 | 97 % of GpH7-B3/GpL16-k0 | 78 % of GpH7-B3/GpL16-k0 | 45 % of GpH7-B3/GpL16-k0 | 29 % of GpH7-B3/GpL16-k0
